How the values were obtained:
GST-LEC2-B3 = biological target: T1, GST-LEC2-B3 (Arabidopsis thaliana, UniProt Q1PFR7); experiment: EMSA; BLI: Octet Qke, 1x Kinetics Buffer (ForteBio), pH 7.0, 0.05 uM biotinylated probe on streptavidin, temperature not stated; EMSA: MgCl2, 0.05% NP-40, 0.5 nM probe, 15 ul, room temperature 20 min, 6% gel in 0.5x TBE (rest of buffer not in material); settings: protein: recombinant; tags: GST (N-terminal, pGEX-2T); label: 5' biotin on strand 1 (strand 2 oligo also named 5-Biotin-probe); blunt
T1 chain: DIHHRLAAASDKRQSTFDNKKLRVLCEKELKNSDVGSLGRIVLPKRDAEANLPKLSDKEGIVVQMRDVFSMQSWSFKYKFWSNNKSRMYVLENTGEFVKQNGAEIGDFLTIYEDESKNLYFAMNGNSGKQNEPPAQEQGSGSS

GST-FUS3-B3 = biological target: T2, GST-FUS3-B3 (Arabidopsis thaliana, UniProt Q9LW31); experiment: as above; settings: protein: recombinant; tags: GST (N-terminal, pGEX-2T); label: 5' biotin on strand 1 (strand 2 oligo also named 5-Biotin-probe); blunt
T2 chain: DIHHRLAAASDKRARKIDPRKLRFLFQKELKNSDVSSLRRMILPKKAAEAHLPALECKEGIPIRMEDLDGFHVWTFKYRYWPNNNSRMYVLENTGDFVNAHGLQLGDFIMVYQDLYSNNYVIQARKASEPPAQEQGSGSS

B1: Sph2 probe (dsDNA)
DNA 1: CACGGATCATGCATGGACGACACGGATCATGCATGGACGACACG
DNA 2: CGTGTCGTCCATGCATGATCCGTGTCGTCCATGCATGATCCGTG
Kd (GST-LEC2-B3): 198 nM | Kd (GST-FUS3-B3): 1.28 nM

Source: paper PMC8136769, “Structural variation affecting DNA backbone interactions underlies adaptation of B3 DNA binding domains to constraints imposed by protein architecture”
